One assay concerns the target microtubules. Description: co-sedimentation.
Assay [1] deals with Oregon Green 488-labeled GMPCPP microtubules. Description: single-molecule TIRF microscopy.
Assay [2] has as its target Xenopus CENP-E^1-473 tagged with TagRFP-T (CENP-E^1-473-RFP) (Xenopus laevis). Description: single-molecule TIRF microscopy with photobleaching steps.

Oregon Green 488-labeled GMPCPP microtubules, sequence (P02550 whole entry, chain 1 of 2): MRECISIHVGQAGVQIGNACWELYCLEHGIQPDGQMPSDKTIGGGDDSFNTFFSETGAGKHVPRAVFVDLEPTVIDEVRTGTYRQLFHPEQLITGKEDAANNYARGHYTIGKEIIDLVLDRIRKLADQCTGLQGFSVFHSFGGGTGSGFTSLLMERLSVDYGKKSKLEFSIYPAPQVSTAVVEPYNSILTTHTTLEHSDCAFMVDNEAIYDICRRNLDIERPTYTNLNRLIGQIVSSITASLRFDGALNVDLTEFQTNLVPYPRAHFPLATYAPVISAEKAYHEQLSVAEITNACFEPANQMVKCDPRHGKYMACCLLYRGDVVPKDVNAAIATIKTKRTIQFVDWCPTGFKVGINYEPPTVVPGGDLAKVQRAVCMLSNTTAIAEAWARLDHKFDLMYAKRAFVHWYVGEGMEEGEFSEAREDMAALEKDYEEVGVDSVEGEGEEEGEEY
Oregon Green 488-labeled GMPCPP microtubules, sequence (P02554 whole entry, chain 2 of 2, further chain): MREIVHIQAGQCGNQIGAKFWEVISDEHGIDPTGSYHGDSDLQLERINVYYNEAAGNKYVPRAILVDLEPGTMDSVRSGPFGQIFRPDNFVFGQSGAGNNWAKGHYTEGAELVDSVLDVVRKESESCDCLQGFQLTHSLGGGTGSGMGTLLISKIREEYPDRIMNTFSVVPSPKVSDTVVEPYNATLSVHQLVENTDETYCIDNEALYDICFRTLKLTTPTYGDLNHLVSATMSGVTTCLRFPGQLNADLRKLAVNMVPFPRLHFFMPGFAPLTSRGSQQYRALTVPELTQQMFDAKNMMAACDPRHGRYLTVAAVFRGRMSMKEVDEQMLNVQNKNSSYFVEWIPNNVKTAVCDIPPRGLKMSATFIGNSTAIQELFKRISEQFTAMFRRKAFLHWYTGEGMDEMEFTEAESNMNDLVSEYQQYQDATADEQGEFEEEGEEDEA
microtubules, sequence (P02550 whole entry, chain 1 of 2): as the sequence (P02550 whole entry, chain 1 of 2) above
microtubules, sequence (P02554 whole entry, chain 2 of 2, further chain): as the sequence (P02554 whole entry, chain 2 of 2, further chain) above

As to “T424A Xenopus CENP-E^1-473 incubated with Aurora A (domain or fragment)”, the Kd in the assay with microtubules was found to be 3.4 µM.
The same measure, in the same setting: the result for “Xenopus CENP-E motor fragment CENP-E^1-473 (domain or fragment)” reads 2 µM; that for “Xenopus CENP-E^1-473 phosphorylated by Aurora A (domain or fragment)”, 3 µM.
Turning to “Xenopus CENP-E^1-473 tagged with TagRFP-T (CENP-E^1-473-RFP) (domain or fragment)”, in assay [1], the mean duration of binding (t) came to 17 s and the time bound at the microtubule end stood at 5.8 s. The stoichiometry N in assay [2] came to 2.
As to “Xenopus CENP-E^1-473-RFP phosphorylated by Aurora A (domain or fragment)”, the mean duration of binding (t) in assay [1] stood at 12 s.

These data come from paper PMC2921712.
